# Substitutions are numbered along the chain they refer to.
# B1: Hu23F4-18 (antibody, V domains shown)
# VH: EVQLVQSGAEVKKPGATVKISCKVSDYTLTSHYLHWVQQAPGKGLEWIGWIFPGDDKTKYNEKFKGRATLTSDTSTDTAYMELSSLRSEDTAVYYCARGTKYLNWNFDVWGQGTTVTVSS
# VL: DIQLTQSPSFLSASVGDRVTITCKANQNVGTTLAWYQQKPGKAPKALIYSASYRYSGVPSRFSGSGSGTEFTLTISSLQPEDFATYYCHQYTTYPLTFGGGTKVEIK
# B2: Hu23F4-15 (antibody, V domains shown)
# VH: B1 VH with D26G, L29F
# VL: B1 VL with S60D, E70D
# B3: Hu23F4-17 (antibody, V domains shown)
# VH: B1 VH
# VL: B1 VL with A46L
# B4: Hu23F4-1 (antibody, V domains shown)
# VH: B1 VH with D26G, L29F, I48M, A68V, L70I, S72A
# VL: B1 VL with A46L
# B5: Hu23F4-10 (antibody, V domains shown)
# VH: B1 VH with D26G, L29F, I48M
# VL: B1 VL
# B6: Hu23F4-12 (antibody, V domains shown)
# VH: B1 VH with D26G, L29F, I48M
# VL: B1 VL with A43S, S60D, E70D, Y87F
# B7: Hu23F4-19 (antibody, V domains shown)
# VH: B1 VH
# VL: B1 VL with S60D, E70D
# B8: Hu23F4-14 (antibody, V domains shown)
# VH: B1 VH with D26G, L29F
# VL: B1 VL
# B9: Hu23F4-4 (antibody, V domains shown)
# VH: B1 VH with D26G, L29F, I48M, A68V, L70I, S72A
# VL: B1 VL with A43S, S60D, E70D, Y87F
# B10: Hu23F4-5 (antibody, V domains shown)
# VH: B1 VH with D26G, L29F, I48M, A68V, L70I
# VL: B1 VL with A46L
# B11: Hu23F4-22 (antibody, V domains shown)
# VH: EVQLVQSGAEVKKPGASVKVSCKASGYTFTSHYLHWVRQAPGQGLEWMGWIFPGDDKTKYNEKFKGRVTMTRDTSISTAYMELSRLRSDDTAVYYCARGTKYLNWNFDVWGQGTTVTVSS
# VL: B1 VL with S60D, E70D
# B12: Hu23F4-7 (antibody, V domains shown)
# VH: B1 VH with D26G, L29F, I48M, A68V, L70I
# VL: B1 VL with S60D, E70D
# B13: Hu23F4-9 (antibody, V domains shown)
# VH: B1 VH with D26G, L29F, I48M
# VL: B1 VL with A46L
# B14: Hu23F4-21 (antibody, V domains shown)
# VH: B11 VH
# VL: B1 VL
# B15: Hu23F4-3 (antibody, V domains shown)
# VH: B1 VH with D26G, L29F, I48M, A68V, L70I, S72A
# VL: B1 VL with S60D, E70D
# B16: Hu23F4-16 (antibody, V domains shown)
# VH: B1 VH with D26G, L29F
# VL: B1 VL with A43S, S60D, E70D, Y87F
# Biological target: recombinant human GM-CSF protein (human, UniProt P04141 18-144)
# Assay: ELISA
# recombinant human GM-CSF protein, sequence (P04141 18-144): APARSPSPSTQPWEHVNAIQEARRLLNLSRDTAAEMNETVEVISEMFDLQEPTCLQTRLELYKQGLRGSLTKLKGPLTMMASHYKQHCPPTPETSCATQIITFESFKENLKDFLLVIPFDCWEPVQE
row,EC50,Binder
1,0.0585 nM,B1
2,0.171 nM,B2
3,0.102 nM,B3
4,0.11 nM,B4
5,0.116 nM,B5
6,0.226 nM,B6
7,0.0787 nM,B7
8,0.0508 nM,B8
9,0.0623 nM,B9
10,0.0585 nM,B10
11,0.059 nM,B11
12,0.164 nM,B12
13,0.0516 nM,B13
14,0.151 nM,B14
15,0.0887 nM,B15
16,0.0858 nM,B16

# Source: patent publication US20180362632A1 (published 2018)
